Results on 1 molecule are retold here after patent publication US20120253023A1.

This test has as its target T1, amylin receptor (rat), P32214.
T1 chain 1: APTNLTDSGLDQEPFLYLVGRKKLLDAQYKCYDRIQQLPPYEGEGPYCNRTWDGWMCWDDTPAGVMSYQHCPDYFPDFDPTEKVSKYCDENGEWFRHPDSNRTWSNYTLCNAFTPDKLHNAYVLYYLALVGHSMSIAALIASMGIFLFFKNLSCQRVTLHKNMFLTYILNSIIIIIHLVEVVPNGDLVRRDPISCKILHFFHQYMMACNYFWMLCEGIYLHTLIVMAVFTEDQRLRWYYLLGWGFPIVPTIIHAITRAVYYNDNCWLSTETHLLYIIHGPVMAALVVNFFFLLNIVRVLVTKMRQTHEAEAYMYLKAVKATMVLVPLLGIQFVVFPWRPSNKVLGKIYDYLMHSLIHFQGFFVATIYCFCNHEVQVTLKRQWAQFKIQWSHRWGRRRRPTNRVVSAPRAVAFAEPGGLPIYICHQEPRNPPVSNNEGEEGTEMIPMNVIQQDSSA
T1 chain 2: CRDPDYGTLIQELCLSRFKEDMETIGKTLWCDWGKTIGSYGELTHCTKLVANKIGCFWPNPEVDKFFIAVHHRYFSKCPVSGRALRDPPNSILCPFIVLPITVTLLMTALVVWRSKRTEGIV

The molecule DFMGWMDFGKRKCNTATCATQRLANELVRLQTYPRTNVGSNTY (modifications not checked) [DF(P-CH2SO3)… …] had an IC50 of 0.083 nM.

What is called IC50 is the concentration that inhibits the measured activity by half.
